This is an account of results in US20130122591.

Assay in all cases: cell_activity
For data set [1], the system named is ZFN 29250 (engineered).
The test system of data set [2] is TALEN 101276 (engineered).
Data set [3] concerns ZFN 29223 (engineered).
The test system of data set [4] is ZFN 29216 (engineered).
The subject of data set [5] is TALEN 101267 (engineered). The following applies: pair with 101270, K562, 1600 ng, day 3.
The test system of data set [6] is TALEN 101286 (engineered). Particulars: pair with 101284, K562, 1600 ng, day 3.
Data set [7] has as its system ZFN 29251 (engineered).
For data set [8], the system named is ZFN 30179 (engineered).
The test system of data set [9] is TALEN 101270 (engineered). Particulars: pair with 101267, K562, 1600 ng, day 3.
The subject of data set [10] is TALEN 101288 (engineered).
For data set [11], the system named is TALEN 101278 (engineered).
Data set [12] has as its system TALEN 101271 (engineered). Particulars: pair with 101272, K562, 1600 ng, day 3.
Data set [13] concerns TALEN 101272 (engineered). Particulars: pair with 101271, K562, 1600 ng, day 3.
Data set [14] concerns TALEN 101284 (engineered).
For data set [15], the system named is TALEN 101282 (engineered). The following applies: pair with 101288, K562, 1600 ng, day 3.

For “AACTTTTGTTAAATTCCTGATTTTATTTCTGTAGGACTGAGCGGCTTGCTCGAGATGTG (double strand) [canine HPRT region (29250/101276 site)]”, the activity in [1] (pair with 30179, canine D17, 100 ng) came out at 9.2 % NHEJ; in [2] (pair with 101278, canine D17, 200 ng, 0 at 100 and 400 ng), 2.5 % NHEJ.

As for “AAGCACTGAATAGAAATAGTGATAGATC (double strand) [29223 site]”, the activity in data set [3] (pair with 29216, rhesus LLC-MK2, printed as 29233) amounted to 2.7 % NHEJ.

For “ATCTCGAGCAAGACGTTCAGTCCTACAG (double strand) [29250 site]”, the activity was found to be 69.2 % NHEJ in data set [1] (pair with 29251, K562, 800 ng, day 3) and 8.2 % NHEJ in data set [1] (pair with 29251, rhesus LLC-MK2 (sites stated conserved)).

As to “ATGTAATCCAGCAGGTCAGCAAAGAATT (double strand) [29216 site]”, the activity in data set [4] (pair with 29223 (printed 29233), rhesus LLC-MK2) was 2.7 % NHEJ.

“TCCGTTATGGCGAC (double strand) [101267 site]” displayed an activity in [5] of 31.8 % NHEJ.

In [6], “TCTATCACTATTTCTAT (double strand) [101286 site]” came in with an activity of 35.3 % NHEJ.

On to “TGATGAAGGAGATGGGAGGCCATCACAT (double strand) [29251/30179 site]”, for which the activity in [7] (pair with 29250, K562, 800 ng, day 3) is 69.2 % NHEJ; in [7] (pair with 29250, rhesus LLC-MK2 (sites stated conserved)), 8.2 % NHEJ; in data set [8] (pair with 29250, rhesus LLC-MK2), 0 % NHEJ.

With “TGCTCACCACGAC (double strand) [101270 site]”, in data set [9], the activity came out at 31.8 % NHEJ.

For “TGGATCTATCACTATTT (double strand) [101288 site]”, the activity in [10] (pair with 101284, K562, 1600 ng, day 3) turned out to be 62.2 % NHEJ; in data set [10] (pair with 101284, rhesus LLC-MK2), 8.7 % NHEJ.

On to “TGGCCTCCCATCTCCT (double strand) [101278 site]”, for which the activity was found to be 35.3 % NHEJ in data set [11] (pair with 101276, K562, 1600 ng, day 3) and 7.6 % NHEJ in [11] (pair with 101276, rhesus LLC-MK2).

Consider “TGGCGTCGTGGTGAGC (double strand) [101271 site]”, for which, in [12], the activity came out at 19.1 % NHEJ.

Take “TGGGCCTGAACCGGCC (double strand) [101272 site]”: the activity in data set [13] came out at 19.1 % NHEJ.

For the substance “TGTAGGACTGAACGTCTT (double strand) [101276 site]”, the activity in [2] (pair with 101278, K562, 1600 ng, day 3) amounted to 35.3 % NHEJ; in data set [2] (pair with 101278, rhesus LLC-MK2) it was 7.6 % NHEJ.

Regarding “TTGCTGACCTGCTGGATT (double strand) [101284 site]”, the activity in data set [14] (pair with 101288, K562, 1600 ng, day 3) is 62.2 % NHEJ; in data set [14] (pair with 101288, rhesus LLC-MK2), 8.7 % NHEJ.

As for “TTTGCTGACCTGCTGGAT (double strand) [101282 site]”, in data set [15], the activity stood at 46.2 % NHEJ.

Take canine HPRT locus, other sites: the activity in data set [7] (pair with 29250, canine D17, 200 ng, 0 at 100 and 400 ng) was determined as 2.8 % NHEJ; in data set [3] (pair with 29216, canine D17), 0 % NHEJ; in data set [11] (pair with 101276, canine D17, 200 ng, 0 at 100 and 400 ng), 2.5 % NHEJ; in data set [8] (pair with 29250, canine D17, 100 ng) it was 9.2 % NHEJ; in [14] (pair with 101288, canine D17, 100 ng), 25.1 % NHEJ; in [10] (pair with 101284, canine D17, 100 ng) it was 25.1 % NHEJ. This substance returned an activity in [4] (pair with 29223, canine D17) of 0 % NHEJ.
